Data published in US20090068174A1, “THERAPEUTIC ALKALINE PROTEASE COMPOSITIONS AND USE IN FACILITATING THE TRANSPORT OF AGENTS ACROSS THE GASTROINTESTINAL MUCOSAL LINING” (Kansas University Medical Center Research Institute, Inc., priority 2007, published 2009).
Entries after “also recorded” stand apart in the source; their conditions may differ.

Columns and labels:
[1] = Hydrolysis of D-val-leu-lys-pNA (kinetic absorbance assay); type: biochemical; conditions: 20 mM Tris-HCl buffer, pH 7, absorbance at 405 nm
Procedure: Specific activity of the purified enzymes was determined by measuring hydrolysis of protamine sulfate and D-val-leu-lys-pNA. For the former, enzyme-substrate mixtures were prepared in 20 mM Tris-HCl, pH 7 or 8, and incubated for 30 min at 37° C. […] Hydrolysis of D-val-leu-lys-pNA in 20 mM Tris-HCl buffer, pH 7, was determined by measuring absorbance at 405 nm wavelength every 10 sec over 10 min and calculating the change in absorbance (mOD units) per min per μg protein.

Salmon protamine = experiment: Hydrolysis of salmon protamine sulfate (ninhydrin assay); type: biochemical; conditions: 20 mM Tris-HCl, pH 7 or 8, 30 min at 37° C.
Procedure: Specific activity of the purified enzymes was determined by measuring hydrolysis of protamine sulfate and D-val-leu-lys-pNA. For the former, enzyme-substrate mixtures were prepared in 20 mM Tris-HCl, pH 7 or 8, and incubated for 30 min at 37° C. After precipitation with 14% trichloroacetic acid and removal of precipitated protein by centrifugation, the reaction mixtures were diluted in 500 mM sodium citrate buffer, pH 5, combined with 2% ninhydrin and boiled for 30 min. After dilution in 50% isopropanol, absorbance was measured at 570 nm wavelength, and results were referenced to leucine as a standard. Hydrolysis of D-val-leu-lys-pNA in 20 mM Tris-HCl buffer, pH 7, was determined by measuring absorbance at 405 nm wavelength every 10 sec over 10 min and calculating the change in absorbance (mOD units) per min per μg protein.
Protamine sulfate from salmon (Sigma, St. Louis, Mo.): 1% (10 mg/ml) solution in reaction buffer. Fushima et al use 2% and denature the protein by boiling for 30 min in 100 mM phosphate buffer, pH 7.0. […]
Procedure • 1. […] Read Absorbance at 570 nm (purple color) and calculate nanomoles by reference to a standard curve prepared with leucine. […] Activity of enzyme is expressed as nanomoles of leucine equivalents released per milligram of protein (endpoint assay) or nanomoles of leucine equivalents/min/μg protein (kinetic assay). • 10. […]

[2] = Biochemical properties of the purified proteases (Table 4): pH optimum, substrate specificity, metal requirements; conditions: established by inventors
mouse recombinant TNF-α = biological target: T1, mouse recombinant TNF-α (Mus musculus, UniProt P06804); experiment: Bioactivity of protease-treated mouse TNF-α in the C2C12 cell bioassay (nitrite); type: cell-based; design: key to Inactivation of Mouse TNF-α: +: Indicates that the protease inactivated the cytokine; ^a: Cleavage of the cytokine occurred without inactivation; conditions: for Effect on bioactivity of mouse TNF-α: C2C12 cells, NO (nitrite) production
T1 sequence (P06804 80-235 limits assumed): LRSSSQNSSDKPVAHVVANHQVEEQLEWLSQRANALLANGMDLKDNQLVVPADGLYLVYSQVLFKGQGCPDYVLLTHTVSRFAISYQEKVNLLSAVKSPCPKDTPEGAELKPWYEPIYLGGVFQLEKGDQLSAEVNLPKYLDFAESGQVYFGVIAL
Procedure: Effects of three purified A. oryzae proteases on the bioactivity of mouse TNF-α (A) protease powder prepared according to Example 1 (preparation); (B) alkaline protease; (C) 26 kDa protease; and (D) deuterolysin. 50 ng quantities of TNF-α were incubated at 37° C. for 24 hours with the indicated quantities of the protease powder prepared according to Example 1 or one of the three purified proteases. The reactions were then stopped by addition of FBS and samples were added to C2C12 cells that had been costimulated with mouse IFN-γ. Twenty-four hours later, nitrite was measured in culture fluids.
The protease powder prepared according to Example 1 inactivates mouse recombinant TNF-α. 50 ng of the cytokine was treated for 24 hours with either 0 (□); 5 (∘); or 10 ng ([…]) of either Pseudomonas elastase (A) or protease powder prepared according to Example 1 (B). Then the residual bioactivity of the cytokine was measured by its ability to co-activate mouse C2C12 myoblast cells in the presence of excess IFN-γ for the production of NO (nitrite).
The protease powder prepared according to Example 1 inactivates mouse recombinant TNF-α by limited proteolysis. (FIG. 16 A-B) This property was established by measuring the loss of activity of TNF-α in a bioassay in which the cytokine was used to coactivate mouse myoblast C2C12 cells for the production of NO by transcriptional activation of the inducible NO synthase (iNOS) gene. The assay can be used to measure either TNF-α or IFN-γ activity by adding test samples containing one of the cytokines to cells stimulated with an excess of the other cytokine. Nitrite is a stable endproduct of NO produced by the cells. […] (FIG. 16A-B).
The three purified proteases were then compared for their ability to inactivate mouse TNF-α using the C2C12 cell bioassay.

B1: 26 kDa Protease: A. oryzae protease cloned recently by Novozyme, labeled the 26 kDa protease, SEQ ID NO: 3 (protein, listed as Aspergillus oryzae)
chain: HASADAWASSKAISSTSSPSSFKMRFISVSSLLLALAPALNAVPVEVAGSAQGLDVTLSQVGNTRIKAWKNTGSEDVTFVHLNFFKDAAPVQKVSLFRNATEVQFQGIKQRLITEGLSDDALTTLAPGATIEDEFDIASTSDLSEGGTITINSNGLVPITTDNKVTGYIPFTSNELSIDVDAAEAASVTQAVKILERRTKVTSCSGSRLSALQTALRNTVSLARAAATAAQSGSSSRFQEYFKTTSSSTRSTVAARLNAVANEAASTSSGSTTYYCSDVYGYCSSNVLAYTLPSYNIIANCDLYYSYLPALTSTCHAQDQATTTLHEFTHAPGVYSPGTDDLGYGYSAATALSASQALLNADTYALFANAVNLNC
Specific activity, Val-leu-lys-pNA [1]: 2.1 mOD/min/μg protein | Specific activity, Salmon protamine (Salmon protamine): 679 nmoles Leucine/30 min./μg protein | Substrate specificity [2]: protamine | Effect on bioactivity of mouse TNF-α (mouse recombinant TNF-α): devoid of such activity

B2: Alkaline Protease: Aspergillus oryzae alkaline protease (oryzin), SEQ ID NO: 2, purified from the protease powder of Example 1 (protein, listed as Aspergillus oryzae)
chain: MQSIKRTLLLLGAILPAVLGAPVQETRRAAEKLPGKYIVTFKPGIDEAKIQEHTTWATNIHQRSLERRGATGGDLPVGIERNYKINKFAAYAGSFDDATIEEIRKNEDVAYVEEDQIYYLDGLTTQKSAPWGLGSISHKGQQSTDYIYDTSAGEGTYAYVVDSGVNVDHEEFEGRASKAYNAAGGQHVDSIGHGTHVSGTIAGKTYGIAKKASILSVKVFQGESSSTSVILDGFNWAANDIVSKKRTSKAAINMSLGGGYSKAFNDAVENAFEQGVLSVVAAGNENSDAGQTSPASAPDAITVAAIQKSNNRASFSNFGKVVDVFAPGQDILSAWIGSSSATNTISGTSMATPHIVGLSLYLAALENLDGPAAVTKRIKELATKDWKDVKGSPNLLAYNGNA
Specific activity, Val-leu-lys-pNA [1]: 116.7 mOD/min/μg protein | Specific activity, Salmon protamine (Salmon protamine): 951 nmoles Leucine/30 min./μg protein | Substrate specificity [2]: Protamine > casein,; also recorded: hemoglobin; val-leu-lys | Effect on bioactivity of mouse TNF-α (mouse recombinant TNF-α): dose-dependent inactivation of mouse TNF-α | Inactivation of Mouse TNF-α (mouse recombinant TNF-α; Table 7 summary): +
